# From the DeepSol protein solubility set
# Assay: soluble on expression in E. coli; label from the status in PepcDB or PDB records
row,Sequence,soluble on expression in E. coli
1,MGSDKIHHHHHHMHYQFFATCPRGLEPLLEDELNSIRARQIKPTDGGVGFAGDMLLCYRANLESRIATRILLQVGKGRYSNEDELYQGAYKIDWVQWFEVEQDFMVKVTGVRCPLKSLEFATLRIKDAICDRFREEVGSRPSIDTREPDVRVHAYLGAEEYQLYVDTSGNALYQRGLRRASIEAPLRENLAAGILKLSGWQPGTPLLDPMCGSGTFLLEAAMISLDIAPGSNRSFGFERLKNFNAGAWQSLLKQAKSRAKPVAFQGIYGSDADLRAVRITRKNLEQAGLLDAMQVAHREFTDVVPPAAEGILVANPPYGVRIGEDEELAALYPKMGEALKKKFAGWNAYFLTNDMRLPKLMRLSPTKRTPLFNGPLECRVFEIKMVAGSNRKEKSND,not soluble
2,AIASSLVYPVSQSYHYLSTSNNRLFSAVPSEEKSNKEVKGKAQETSKENTSPATLQDSFGFQLKTGTPDRMPSSFDQATGSERAELEDPDLYRNPEKYVNSRVMIAPFGTKEKPLLIPSRYDSRIIGCTGREAPNDHGVYYMTVKENHDKVCPLCGQVFRLKKVAGGEEASHHHHE,soluble
3,MCPKCGTECDKLFDSVCRDCFFETFKLIDLPLVLHVKICSSCGAYFHRSRWENIGNLEEVVLKAVENALFIHDEAGDVELYLEPKEITPYIYMVRAEVDAIVRGEPVHAEAATEVRVQRIACDMCSRESGGYFEAIIQIRAAGRFPTEEEKRRCSAIAREAMESMKKKGDRLAFISDYQEQKEGIDLYMGSMNASRQVCRMIISELGGSFAESPTLVGMKDGKNLYRITFAMRLPLEHHHHHH,not soluble
4,NIITVTLNMERHHFLGISIVGQSNDRGDGGIYIGSIMKGGAVAADGRIEPGDMLLQVNDVNFENMSNDDAVRVLREIVSQTGPISLTVAK,soluble
5,HYIFPHARIKITRDSKDHTVSGNGLGIRIVGGKEIPGHSGEIGAYIAKILPGGSAEQTGKLMEGMQVLEWNGIPLTSKTYEEVQSIISQQSGEAEICVRLDLNM,soluble
6,MNVSVVIPALNEEATVADVVALSRRGSDEVIVIDSDSTDATAARAKAAGASVVNWRDVVSLPPIPGKGEALWRGVAAARGDVVVFLDADLTEISPTIVEDLARPFIDDSVMLAKAAYTRGDASGGGGRVTELTARPLLEAFFPELGFVRQPLGGEYAIRRSAALDLPFVGGYGVEVGLLIDVFRCFGAASIVEVEAGHRGHRHRPLRELAPMARVVASTILQRAGVASGLDGVGQRPAISSLESGVGKV,not soluble
7,MGSDKIHHHHHHVTSDLDFHLFCPKGALSDLVQGIWSVSRPAEADELHAWLHSDAASGLLINLGAPLGYDEQEVPAGVYLLPVNKQTTRVTLPPGALAVGVRFLPGAGRAWMMERFAFEQGREAITPLTYHAELMALAASLRACRGHRQRLSLTYRWLRANQTLNQPLPRVINEVLQALDRPDADMTAFENGVMSQRQIERYFRRYLEMTPKYYQRLMRARQTLQALKLSPLAPLADIALELGFADQAHMTRELKQLIKITPKRYRQLLTQGAG,not soluble
8,MGSDKIHHHHHHMFLEKLVEMARGKGKKLAVAAANDDHVIEAVYRAWRERVCEPVLFGPEEEITRIIEELVPEWKNPQIIDCPPEEAGRLAVEAVSKGECDFLMKGKIKTGDLMKIYLDERYGLRTGKTMAMVSVMEIPDFPRPLIISDPGMLISPTLEQKVDMIEHCVRVANVMGLETPKVAVVGAIEVVNPKMPITMEAAILSKMNQRGQIKGCIVDGPFALDNVVSEEAAKKKGIQSPVAGKADILILPDIEAANILYKALVFLAKAKSASTILGGKVPVVLTSRADSEETKFYSIALSAVFA,not soluble
9,MSLQTSDQYSIQEVVDAGHGFFGETTGGLAKVVERAFQQYGLPNGYILGQEGSGAFVAGLTYGEGTLYTKNAGQHPVFWQGPSLGLDYGGQGTRAMMLVYNLPSVDALYRRYGGVSGSAFIVAGVGMTYLKSSDVTLAPIRTGIGARLGINVGYLKLTQQPTWNPFEGHHHHHH,soluble
10,MDLEMMLDEDYKEGICLINFSQIALSTALVNFPDKEKINLSMVRHLILNSIKFNVKKAKTLGYTKIVLCIDNAKSGYWRRDFAYYYKKNRGKAREESTWDWEGYFESSHKVIDELKAYMPYIVMDIDKYEADDHIAVLVKKFSLEGHKILIISSDGDFTQLHKYPNVKQWSPMHKKWVKIKSGSAEIDCMTKILKGDKKDNVASVKVRSDFWFTRVEGERTPSMKTSIVEAIANDREQAKVLLTESEYNRYKENLVLIDFDYIPDNIASNIVNYYNSYKLPPRGKIYSYFVKAGLSKLTNSINEF,soluble
11,MSLAEKPKKPQKLRARLPRGLADRGPAEIAATRAMVEKIREVYERYGFEPVETPAFEYTDALGKFLPDQDRPNEGVFSLQDDDEQWISLRYDLTAPLARYVAENFDQLPKPHRSYRFGWVFRNEKPGPGRFRQFMQFDADTVGAPTAAADAEMCMMAADTMEALGIPRGSYVVKVNNRKVLDGVLESIGLGGDENAGRRLTVLRAIDKSDKFAPEEIKKLLGPGRWDGGEEGKGDFTKGAMLSDDQSELILRATSPSFIAGRFNADGSGGISNIDTVELLRSTADNETLKQGCDELAVIADLLDACGYGATSANPDVRVVIDPSVVRGLEYYTGPVYEVELLLDTKDEKGRPVRFGSVGGGGRYDGLVSRFRGEPVPATGFSIGVSRLQAALTLIGQLGNKPQAGPVVVTVFGGEIAGYQKMVATLRKAGIRAELYLGNPKHSLGQQMKYADKRNSPCAIIQGSDEKQQGIVQIKDLILGAELASLEKDRDEYLKKQAEAQFSCNEDEMVAKVQELLQRRGWRGGKGIITITTDPNSSSVDKLAAALEHHHHHH,soluble
12,MSLEEAVDLSVLYVEDDELSRSGIFNALKRKVKNIHFAANGQEGLEVFKEHRPDVVITDIKMPLLNGLEMAKQILEMEPSVEIIVATAFEDAELFKRAIDLDVDKYLTKPLDVTQILMHLKRIEMQKRLEREFEVYSRALNEVASIFWFDLELECLKVNPRAIASGGEHGVENEKLKEMARLALEKGGRHQEGNKIFSVAFNVAKEPKGFCLCVMESMEEGHHHHHH,soluble
13,MGSDKIHHHHHHMTILDHKIDFAVILSVTKANPNGDPLNGNRPRQNYDGHGEISDVAIKRKIRNRLLDMEEPIFVQSDDRKADSFKSLRDRADSNPELAKMLKAKNASVDEFAKIACQEWMDVRSFGQVFAFKGSNLSVGVRGPVSIHTATSIDPIDIVSTQITKSVNSVTGDKRSSDTMGMKHRVDFGVYVFKGSINTQLAEKTGFTNEDAEKIKRALITLFENDSSSARPDGSMEVHKVYWWEHSSKLGQYSSAKVHRSLKIESKTDTPKSFDDYAVELYELDGLGVEVIDGQ,not soluble
14,MSLRSSFRVGVTEDRNKKCRRTMEDTHAYLYNFLGNPVPSAQNDDSDQSSHPSDASPKTGELTPIVETDNGYFAIFDGHAGTFAAQWCGKKLHLILEDVMRKNINAPVPELLDQTFTSVDQQLEKLPVKNSGCTAVVALLRWEDRIPTPSSVTGSSAIGPAAVAATKAGADSKADDTPTQEAAATPVPAIPPKLREKAIRQRVLYTANVGDARVILCRNGKALRLSYDHKGSDENEGRRIANAGGLIMNNRVNGVLAVTRALGDAYIKDLVTGHPYTTETVIQPDLDEFIILASDGLWDVCSDQEAVDLIRNVSDAQEASKILVDHALARFSTDNLSCMVIRLYADREGHHHHHH,soluble
15,MKETDLRVIKTKKALSSSLLQLLEQQLFQTITVNQICDNALVHRTTFYKHFYDKYDLLEYLFNQLTKDYFARDISDRLNHPFQTMSDTINNKEDLREIAEFQEEDAEFNKVLKNVCIKIMHNDIKNNRDRIDIDSDIPDNLIFYIYDSLIEGFIHWIKDEKIDWPGEDIDNIFHRLINIKIK,soluble
16,QPAQSGAFLVDQSQLTQSSILIGHQGGQLSNPDYPELSVMNGVINGFGGRLFNEIRSRQGLAYSVYGVWSPRYDYDGQFIAGGSTRTEATVPFITAMKGEIKRLQTELITPAELAYAKDSILNSFVFNFEDPGQTLSRLMRYEYYGYPEDFIFQYQREVEATTIEDVQRVAQTYLKPEQLTVLVVGN,not soluble
17,MSLQFVSKARKGLVPQRCHRFQSCAYRSNQWRYRGRCDSIQFAVDKRVFIAGFGLYGSSCGSAEYSAKIEMKRQGVVLGQNLSKYFSDGSSNTFPVWFEYPVQIEPDTFYTASVILDGNELSYFGQEGMTEVQCGKVTVQFQCSSDSTNGTGVQGGQIPELIFYAEGHHHHHH,not soluble
